Measured values from patent US5955329.
Values belong to the molecule of their own block, whether it stands above or below them.

Key:
18:0 acyl-ACP [1] = target: 18:0 acyl-ACP
16:0 acyl-ACP [2] = target: 16:0 acyl-ACP
[3] = target: bay thioesterase triple mutant M197R/R199H/T231K (California bay (Umbellularia californica)); test: inhibition of 14:0-ACP thioesterase activity; 5 µM cold 12:0-ACP against 5 µM 14C labeled 14:0-ACP as competitor
[4] = target: California bay (Umbellularia californica) C12 preferring acyl-ACP thioesterase, wild type, mature protein from pCGN3823 (California bay (Umbellularia californica)); test: as above
[5] = target: bay thioesterase triple mutant M197R/R199H/T231K (California bay (Umbellularia californica)); test: inhibition of 14:0-ACP thioesterase activity; 25 µM cold 12:0-ACP against 5 µM 14C labeled 14:0-ACP as competitor
[6] = target: California bay (Umbellularia californica) C12 preferring acyl-ACP thioesterase, wild type, mature protein from pCGN3823 (California bay (Umbellularia californica)); test: as above
[7] = target: bay thioesterase triple mutant M197R/R199H/T231K (California bay (Umbellularia californica)); test: inhibition kinetics of thioesterase activity; slope inhibition constant of 12:0-ACP with 14:0-ACP as varied substrate
[8] = target: California bay (Umbellularia californica) C12 preferring acyl-ACP thioesterase, wild type, mature protein from pCGN3823 (California bay (Umbellularia californica)); test: as above
14:0-ACP [9] = target: 14:0-ACP
18:0 acyl-ACP [10] = target: 18:0 acyl-ACP; remark: listed apart in the source
16:0 acyl-ACP [11] = target: 16:0 acyl-ACP; remark: listed apart in the source
14:0-ACP [12] = target: 14:0-ACP; remark: listed apart in the source
12:0-ACP [13] = target: 12:0-ACP
12:0-ACP [14] = target: 12:0-ACP; remark: listed apart in the source
14:0-ACP [15] = target: 14:0-ACP; remark: listed apart in the source
12:0-ACP [16] = target: 12:0-ACP; remark: listed apart in the source
[17] = target: acyl-ACP substrates (chain length not stated for this assay)

Molecule: Cuphea palustris Class II acyl-ACP thioesterase CpFatB1 (MCT29), mature region as lacZ fusion protein (MCT29LZ) (enzyme)
acyl-ACP thioesterase activity (% of the C8-ACP activity) (14:0-ACP [9]): 10

Molecule: mangosteen (Garcinia mangifera) Class I acyl-ACP thioesterase GarmFatA1, wild type (enzyme)
Acyl-ACP Thioesterase activity (cpm/min) (18:1 acyl-ACP): 87400 cpm/min
Acyl-ACP Thioesterase activity (cpm/min) (18:0 acyl-ACP [10]): 23900 cpm/min
Acyl-ACP Thioesterase activity (cpm/min) (16:0 acyl-ACP [11]): 4370 cpm/min

B1: California bay (Umbellularia californica) C12 preferring acyl-ACP thioesterase, wild type, mature protein from pCGN3823 (enzyme)
chain: LEWKPKPKLPQLLDDHFGLHGLVFRRTFAIRSYEVGPDRSTSILAVMNHMQEATLNHAKSVGILGDGFGTTLEMSKRDLMWVVRRTHVAVERYPTWGDTVEVECWIGASGNNGMRRDFLVRDCKTGEILTRCTSLSVLMNTRTRRLSTIPDEVRGEIGPAFIDNVAVKDDEIKKLQKLNDSTADYIQGGLTPRWNDLDVNQHVNNLKYVAWVFETVPDSIFESHHISSFTLEYRRECTRDSVLRSLTTVSGGSSEAGLVCDHLLQLEGGSEVLRARTEWRPKLTDSFRGISVIPAEPRV
Km,app (14:0-ACP [12]): 6.4 µM
Km,app (12:0-ACP [13]): 1.9 µM

B3: bay thioesterase mutant R327Q (enzyme)
chain: LEWKPKPKLPQLLDDHFGLHGLVFRRTFAIRSYEVGPDRSTSILAVMNHMQEATLNHAKSVGILGDGFGTTLEMSKRDLMWVVRRTHVAVERYPTWGDTVEVECWIGASGNNGMRRDFLVRDCKTGEILTRCTSLSVLMNTRTRRLSTIPDEVRGEIGPAFIDNVAVKDDEIKKLQKLNDSTADYIQGGLTPRWNDLDVNQHVNNLKYVAWVFETVPDSIFESHHISSFTLEYRRECTRDSVLQSLTTVSGGSSEAGLVCDHLLQLEGGSEVLRARTEWRPKLTDSFRGISVIPAEPRV
thioesterase specific activity (fold decrease) (14:0-ACP [15]): 30
thioesterase specific activity (fold decrease) (12:0-ACP [16]): 100

B4: bay thioesterase mutant C320S (enzyme)
chain: LEWKPKPKLPQLLDDHFGLHGLVFRRTFAIRSYEVGPDRSTSILAVMNHMQEATLNHAKSVGILGDGFGTTLEMSKRDLMWVVRRTHVAVERYPTWGDTVEVECWIGASGNNGMRRDFLVRDCKTGEILTRCTSLSVLMNTRTRRLSTIPDEVRGEIGPAFIDNVAVKDDEIKKLQKLNDSTADYIQGGLTPRWNDLDVNQHVNNLKYVAWVFETVPDSIFESHHISSFTLEYRRESTRDSVLRSLTTVSGGSSEAGLVCDHLLQLEGGSEVLRARTEWRPKLTDSFRGISVIPAEPRV
thioesterase activity (% of the wild-type activity) [17]: 80

B5: bay thioesterase mutant R322M/R327Q (enzyme)
chain: LEWKPKPKLPQLLDDHFGLHGLVFRRTFAIRSYEVGPDRSTSILAVMNHMQEATLNHAKSVGILGDGFGTTLEMSKRDLMWVVRRTHVAVERYPTWGDTVEVECWIGASGNNGMRRDFLVRDCKTGEILTRCTSLSVLMNTRTRRLSTIPDEVRGEIGPAFIDNVAVKDDEIKKLQKLNDSTADYIQGGLTPRWNDLDVNQHVNNLKYVAWVFETVPDSIFESHHISSFTLEYRRECTMDSVLQSLTTVSGGSSEAGLVCDHLLQLEGGSEVLRARTEWRPKLTDSFRGISVIPAEPRV
thioesterase specific activity (fold decrease) (14:0-ACP [15]): 30
thioesterase specific activity (fold decrease) (12:0-ACP [16]): 100

B6: bay thioesterase triple mutant M197R/R199H/T231K (enzyme)
chain: LEWKPKPKLPQLLDDHFGLHGLVFRRTFAIRSYEVGPDRSTSILAVMNHMQEATLNHAKSVGILGDGFGTTLEMSKRDLMWVVRRTHVAVERYPTWGDTVEVECWIGASGNNGRRHDFLVRDCKTGEILTRCTSLSVLMNTRTRRLSKIPDEVRGEIGPAFIDNVAVKDDEIKKLQKLNDSTADYIQGGLTPRWNDLDVNQHVNNLKYVAWVFETVPDSIFESHHISSFTLEYRRECTRDSVLRSLTTVSGGSSEAGLVCDHLLQLEGGSEVLRARTEWRPKLTDSFRGISVIPAEPRV
Km,app (14:0-ACP [12]): 2.3 µM

The remaining lines, values ahead:

thioesterase activity, preference 18:0/18:1 (% (18:0/18:1)) (18:0 acyl-ACP [1]): 35
Molecule: mangosteen GarmFatA1 mutant D261K (enzyme)

acyl-ACP thioesterase activity (% of the C14-ACP activity) (16:0 acyl-ACP [2]): 30
Molecule: Cuphea palustris Class II acyl-ACP thioesterase CpFatB2 (MCT34), mature region as lacZ fusion protein (MCT34LZ) (enzyme)

Inhibition (%) [3]: 48%
Inhibition (%) [4]: 53%
Inhibition (%) [5]: 76%
Inhibition (%) [6]: 78%
Ki [7]: 11.6 µM
Ki [8]: 10.2 µM
Molecule: 12:0-ACP

thioesterase activity (12:0-ACP [14]): 7 fold reduced
B2: bay thioesterase mutant M197R/R199H (enzyme)
chain: LEWKPKPKLPQLLDDHFGLHGLVFRRTFAIRSYEVGPDRSTSILAVMNHMQEATLNHAKSVGILGDGFGTTLEMSKRDLMWVVRRTHVAVERYPTWGDTVEVECWIGASGNNGRRHDFLVRDCKTGEILTRCTSLSVLMNTRTRRLSTIPDEVRGEIGPAFIDNVAVKDDEIKKLQKLNDSTADYIQGGLTPRWNDLDVNQHVNNLKYVAWVFETVPDSIFESHHISSFTLEYRRECTRDSVLRSLTTVSGGSSEAGLVCDHLLQLEGGSEVLRARTEWRPKLTDSFRGISVIPAEPRV
